# Measurements reported in PMC10979056 (Heliyon, 2024).
# Changes are numbered by the printed parent chain.
# B1: MsT229 (antibody, V domains shown)
# VH: EIQLVQSGPELVKPGASMKMSCKASGYSFTGYTMNWVKQSHGQNLEWIGLINPQTGGTSYNQNFRGKATLTVDKSSNTAYMELLSLTSEDSAVYYCARERGFDSPGFPYWGQGTLVTVSA
# VL: DIQMTQTTSSLSASLGDRVTISCRASQDISNYLNWYQQKPDGTVKLLIYYTSRLHSGVPSRFSGSGSGTDYSLTISNLEQEDIATYFCQQGNTLPLTFGAGTKLELK
# B2: MsT286 (antibody, V domains shown)
# VH: B1 VH with E1Q, I2V, V5Q
# VL: not shown
# B3: MsT229-Bio (antibody, V domains shown)
# VH: B1 VH
# VL: B1 VL
# B4: MsT001 (antibody, V domains shown)
# VH: EVQLQQSGAEVVMPGASVKMSCKTSGYTFTDYLIHWVKQRPGQGLVWIGAIDTSDSYASYNQKFKGKATLTLDESSRTAYMQLSSLTSEDSAVYFCTGEGLDYWGQGTSVTVSS
# VL: DIQMTQTPLSLPVSLGDQASISCRSSQSLVHSNGNTYLNWYLQKPGQSPKLLIYKVSYRFSGVPDRFSGSGSGTDFTLKISRVEAEDLGVYFCSQSTHVPPLTFGAGTKLELK
# Target: cynomolgus TIM-3-hFc (Macaca fascicularis, UniProt A0A2K5U3G7)
# Test: BLI
row,Binder,Kd [nM]
1,B1,0.0179
2,B2,0.914

# Target: human TIM-3-His (human, UniProt Q8TDQ0)
# Test: ELISA
row,Binder,sensitivity (lowest detectable concentration of coated TIM-3-His) [ng/mL]
1,B1,10
2,B3,1
3,B2,1
4,B4,1
